This note sets out measurements from patent EP4796630A2 (Hugel Inc., dated 2026).

Values joined by “and” are separate entries in the source; they are usually repeats but may differ in a detail not shown here. Identical values can stand only once. Like-named read-outs stand apart in the source and are kept apart here.

What is called kon is the second-order rate constant of association. Usually Kd stands for the free concentration of one partner at which half of the binding sites on the other are occupied at equilibrium, for simple one-to-one binding. Usually koff stands for the rate constant with which the complex falls apart.

Test [1] has as its target T1, endogenous SNAP25197 in total cell lysate of BoNT/A-treated N2-42F cells (mouse, UniProt P60879 1-197).
T1 construct: range 1-197; also called SNAP25197 captured
Kind of test: sandwich ELISA, plate coated with B4 IgG, lysate of BoNT/A-treated N2-42F cells. Background: In an ELISA, binding on a coated surface is turned into a signal by an enzyme label.

The target of test [2] is T2, recombinant GST-SNAP25197 (UniProt P60880 1-197).
T2 construct: range 1-197; also called BoNT/A-cleaved form of SNAP25
Kind of test: direct ELISA; ratio of A450 with SNAP25197 to A450 with SNAP25FL.

The target of test [3] is T3, recombinant GST-SNAP25FL (UniProt P60880 1-206).
T3 construct: range 1-206; also called SNAP25 206; full-length SNAP25; not shown: GST tag
Kind of test: BLI (Octet Red96), IgG on AMC biosensor, GST-SNAP25FL as analyte. (BLI is a label-free optical method that tracks binding on a fibre tip over time.)

The target of test [4] is T3, recombinant GST-SNAP25FL. Kind of test: BLI (Octet Red96), IgG on AMC biosensor, GST-SNAP25FL as analyte; from tentative Kdis.
The target of test [5] is T3, recombinant GST-SNAP25FL. The experiment in a line: BLI (Octet Red96), IgG on AMC biosensor, GST-SNAP25FL as analyte; Kdis is the instrument's lowest limit, tentatively given.
In test [6] the target is T2, recombinant GST-SNAP25197.
For test [7], the target named is T3, recombinant GST-SNAP25FL. The experiment in a line: BLI (Octet Red96), IgG on AMC biosensor, GST-SNAP25FL as analyte. The source holds these as a separate data set.
For test [8], the target named is T2, recombinant GST-SNAP25197. The experiment in a line: BLI (Octet Red96), IgG on AMC biosensor, GST-SNAP25197 as analyte.
Test [9] has as its target T2, recombinant GST-SNAP25197. The description is as above. This is another data set of the same source.
The target of test [10] is T2, recombinant GST-SNAP25197. This is another data set of the same source.
For test [11], the target named is T1, endogenous SNAP25197 in total cell …. Kind of test: sandwich ELISA on lysate of BoNT/A-treated N2-42F cells.

T2 sequence (P60880 1-197 limits assumed): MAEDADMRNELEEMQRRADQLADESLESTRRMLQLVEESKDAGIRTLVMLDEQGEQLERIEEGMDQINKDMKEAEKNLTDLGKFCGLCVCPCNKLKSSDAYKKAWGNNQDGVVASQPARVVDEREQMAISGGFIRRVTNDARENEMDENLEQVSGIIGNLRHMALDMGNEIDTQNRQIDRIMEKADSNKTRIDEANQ
T3 sequence (P60880 whole entry): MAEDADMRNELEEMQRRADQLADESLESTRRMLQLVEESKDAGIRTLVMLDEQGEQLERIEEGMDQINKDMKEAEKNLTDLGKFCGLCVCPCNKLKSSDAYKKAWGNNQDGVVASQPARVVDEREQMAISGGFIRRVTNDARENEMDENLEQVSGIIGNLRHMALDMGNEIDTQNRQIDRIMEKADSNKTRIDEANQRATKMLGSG
T1 sequence (P60879 1-197 limits assumed): as the sequence (P60880 1-197 limits assumed) above

B1: B4 IgG (antibody, V domains shown)
VH: EVKLVESGGGLVKPGGSLKLSCAASGFTFSNYGMSWVRQTPEKRLEWVATISSGGSYTYYPDSVKGRFTISRDNAKNTLYLQMSSLRSEDTAMYYCARHEGGGNPYFDYWGQGTTLTVSS
VL: DVLMTQTPLSLPVSLGDQASISCRSSQSLVHSNGNTYLHWYLQKPGQSPKLLIYKVSNRFSGVPDRFSGSGSGTDFTLKISRVEAEDLGVYFCSQNTLVPWTFGGGTKLEIK
notes: also called B4 IgG1; clone 4
As for B1, the binding result in test [1] was “binds”. Further, in [2], the Ratio197/206 turned out to be 0.83. The kon in the test with recombinant GST-SNAP25FL [3] worked out at 95100 M⁻¹ s⁻¹. Moreover, in the test with recombinant GST-SNAP25FL [4], the Kd is no more than 0.1 pM. In addition, in the test with recombinant GST-SNAP25FL [5], the koff is no more than 1e-07 s⁻¹.

B2: D3 IgG (antibody, V domains shown)
VH: EVQLEESGGGLVQPGGSLKLSCAASGFTFSNYGMSWVRQTPDKRLELVATINSNGGTTYYPDSVKGRFTISRDNAKNTLYLQMSSLKSEDSAMYYCARDRDAMDYWGQGTSVTVSS
VL: DVLMTQTPLSLPVSLGDQASISCRSSQSIVNSHGNTYLEWYLQKPGQSPKLLIYKVSNRFSGVPDRFSGSGSGTDFTLKISRVEAEDLGVYYCFQGSHVPWTFGGGTKLEIK
As to B2, in test [6], the Kd was no more than 0.9 pM and the koff is no more than 1e-07 s⁻¹. In the test with recombinant GST-SNAP25FL [7], the binding result was “no binding (tested: up to 1 µM)”. Further, the kon in [8] was determined as 111000 M⁻¹ s⁻¹. Besides, in test [2], the Ratio197/206 was determined as 12.9.

B3: D6 IgG (antibody, V domains shown)
VH: EVQLQQSGPELVKPGASVKISCKASGYTFTDYNMHWVKQSHGKSLEWIGYIYPYNGDTGYNQKFKSKATLTVDNSSSTAYMELRSLTSEDSAVYYCVRSGDYWGQGTTLTVSS
VL: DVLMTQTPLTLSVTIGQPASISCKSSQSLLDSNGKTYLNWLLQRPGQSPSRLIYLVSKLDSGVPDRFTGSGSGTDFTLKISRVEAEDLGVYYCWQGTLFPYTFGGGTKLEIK
As to B3, in test [9], the binding result is listed as “no binding”. The Ratio197/206 in test [2] worked out at 0.02. In the test with recombinant GST-SNAP25FL [3], the kon amounted to 35200 M⁻¹ s⁻¹. The Kd with recombinant GST-SNAP25FL [4] is no more than 2.84 pM. In addition, in the test with recombinant GST-SNAP25FL [5], the off-rate constant (koff) was no more than 1e-07 s⁻¹.

B4: C4 IgG (antibody, V domains shown)
VH: DVKLQESGPGLVKPSQSLSLTCTVTGYSITSDYAWNWIRQFPGNKLEWMGYISYSVGTRYNPSLKSRISITRDTSKNQFFLLLKSVTNEDTATYFCARKGEYGFAYWGQGTLVTVSA
VL: DIVMTQSPASLAVSLGQRATISCRASKSVSTSGYSYMHWYQQKPGQPPKLLIYLASNLESGVPARFSGSGSGTDFTLNIHPVEEEDAATYYCQHSRELPLTFGAGTKLELK
In the case of B4, in [6], the Kd came to 1.07 pM and the off-rate (koff) came out at 1e-07 s⁻¹. Further, the binding result with recombinant GST-SNAP25FL [7] is “no binding (tested: up to 1 µM)”. For the same molecule, the kon in test [8] came to 92800 M⁻¹ s⁻¹. For the same molecule, the Ratio197/206 in test [2] was 919. Besides, in [10], the equilibrium dissociation constant (Kd) is 6530 pM and 17800 pM; the koff is 0.00148 s⁻¹ and 0.0041 s⁻¹; the kon is 230000 M⁻¹ s⁻¹ and 227000 M⁻¹ s⁻¹.

B5: C24 IgG (antibody, V domains shown)
VH: EVKLVESGGGLVQPKGSLKLSCAASGYTFNTYAMNWVRQAPGKGLEWVARIRSKSNNYTTYYADSVKDRFTISRDDSQSMLYLQINNLKTEDTAMYYCVGQILYYYVGSPAWFAYWGQGTLVTVSA
VL: DIVMTQSPASLAVSLGQRATISCRASKSVSTSGYSYMHWYQQKPGQPPKLLIFLASNLESGVPARFSGSGSGTDFTLNIHPVEEEDAATYYCQHSRELPWTFGGGTKLEIK
Turning to B5, in test [6], the Kd is 1.15 pM and the koff was 1e-07 s⁻¹. The binding result in the test with recombinant GST-SNAP25FL [7] was “no binding (tested: up to 1 µM)”. Moreover, in test [8], the kon turned out to be 86800 M⁻¹ s⁻¹. The Ratio197/206 in [2] came to 973. Moreover, in test [10], the Kd was 9620 pM and 5250 pM; the koff was 0.00509 s⁻¹ and 0.00241 s⁻¹; the kon is 529000 M⁻¹ s⁻¹ and 458000 M⁻¹ s⁻¹.

B6: C16 IgG (antibody, V domains shown)
VH: EVQLQQSGAELARPGASVQMSCKAFGYTFTNYTMHWVRQRPGQGLEWIGFINPSSDYTNYNQKFKDKATLSADKSSSTAYMQLSSLTSEDSAVYYCARRIFYNGRTYAAMDYWGQGTSVTVSS
VL: DIVMTQSPASLAVSLGQRATISCRASKSVSSSGYSYMHWYQQKPGQPPKLLIYLASNLESGVPARFSGSGSGTDFTLNIHPVEEEDAATYYCQHSRELPLTFGAGTKLELK
notes: also called C16 IgG1
On to B6, for which the binding result with recombinant GST-SNAP25FL [7] is “no binding (tested: up to 1 µM)”. In [8], the Kd was 1.62 pM, the koff is 2.57e-06 s⁻¹ and the association rate constant (kon) was determined as 1.6e+06 M⁻¹ s⁻¹. In addition, the Ratio197/206 in test [2] is 996. Besides, in [10], the Kd is 6440 pM and 9170 pM; the koff is 0.00152 s⁻¹ and 0.00215 s⁻¹; the kon is 236000 M⁻¹ s⁻¹ and 235000 M⁻¹ s⁻¹.

B7: C16 IgG-HRP conjugate (antibody, V domains shown)
VH: EVQLQQSGAELARPGASVQMSCKAFGYTFTNYTMHWVRQRPGQGLEWIGFINPSSDYTNYNQKFKDKATLSADKSSSTAYMQLSSLTSEDSAVYYCARRIFYNGRTYAAMDYWGQGTSVTVSS
VL: DIVMTQSPASLAVSLGQRATISCRASKSVSSSGYSYMHWYQQKPGQPPKLLIYLASNLESGVPARFSGSGSGTDFTLNIHPVEEEDAATYYCQHSRELPLTFGAGTKLELK
notes: also called C16-HRP; Cg16 IgG-HRP conjugates
For B7, the binding result in test [11] is reported as “binds”.

B8: C7 IgG (antibody, V domains shown)
VH: QVQLVETGGGLVQPKGSLKLSCAASGFTFNTNAMNWVRQAPGKGLEWVARIRSKSNNYATYYADSVKDRFTISRDDSQSLLYLQMNNLKTEDTAMYYCVYGRSYGGLSYWGQGTLVTVSA
VL: DIVMTQSPASLAVSLGQRATISCRASKSVSSSGYSYMHWYQQKPGQPPKLLIYLASNLESGVPARFSGSGSGTDFTLNIHPVEEEDAATYYCQHSRELPLTFGAGTKLELK
notes: also called C7 IgG2a
Consider B8, for which the Kd in test [6] was found to be 1.28 pM. Further, in test [6], the koff was 1e-07 s⁻¹. The binding result with recombinant GST-SNAP25FL [7] was “no binding (tested: up to 1 µM)”. Also, the kon in test [8] is 77800 M⁻¹ s⁻¹; in test [10], 277000 M⁻¹ s⁻¹ and 257000 M⁻¹ s⁻¹. For the same molecule, in test [2], the Ratio197/206 worked out at 1040.

B9: C14 IgG (antibody, V domains shown)
VH: EVKLVESGGGLVQPKGSLKLSCAASGFTFNTNAMNWVRQAPGKGLEWVARIRSKSDNYATYYADSVKDRFTISRDDSPSMLYLQMNNLKTEDTAMYYCVYGRSYGGLGYWGQGTLVTVSA
VL: DIVLTQSPASLAVSLGQRATISCRASKSVSTSGYSYVHWYQQKPGQPPKLLIYLASNLESGVPARFSGSGSGTDFTLNIHPVEEEDAATYYCQHSRELPLTFGAGTKLELK
With B9, in test [6], the Kd is no more than 1.3 pM and the koff was no more than 1e-07 s⁻¹. The binding result in the test with recombinant GST-SNAP25FL [7] is “no binding (tested: up to 1 µM)”. For the same molecule, the kon in test [8] came out at 76700 M⁻¹ s⁻¹. Moreover, the Ratio197/206 in test [2] was 953.

B10: B23 IgG (antibody, V domains shown)
VH: EVQLQQSGAELVRPGASVKLSCTASGINIKDYYMHWMKQRPEQDLEWIGWIDPGNGDAEYAPKFQGKATMTADTSSNTAYLQLSSLTSEDTAVYYCNEIAYWGQGTLVTVSA
VL: not shown
notes: also called B23 IgG1
On to B10, for which the values for the Kd (in test [6]; with recombinant GST-SNAP25FL [4]) were no more than 3.27 pM and no more than 0.1 pM, respectively. For the same molecule, the koff (in test [6]; with recombinant GST-SNAP25FL [5]) was no more than 1e-07 s⁻¹ throughout. Besides, the association rate constant (kon) in [8] is 25400 M⁻¹ s⁻¹; with recombinant GST-SNAP25FL [3], 95800 M⁻¹ s⁻¹. The Ratio197/206 in test [2] came to 0.92.

B11: D2 IgG (antibody, V domains shown)
VH: DVKLQESGPGLVKPSQSLSLTCSVTGYSITSGYYWNWIRQFPGNKLEWMGYIRYDGSNNYNPSLKNRISITRDTSKNQFFLKLNSVTTEDTASYYCARDRDSSYYFDYWGQGTALTVSS
VL: DIVMTQSSSYLSVSLGGRVTITCKASDHINNWLAWYQQKPGNAPRLLISDTTSLETGVPSRFSGSGSGKDYTLSITSLQTEDVATYYCQQYWSAPPTFGGGTKLEIK
For the molecule B11, in [9], the binding result was “no binding”. Moreover, the Ratio197/206 in test [2] amounted to 0.03. The kon with recombinant GST-SNAP25FL [3] is 164000 M⁻¹ s⁻¹. The equilibrium dissociation constant (Kd) with recombinant GST-SNAP25FL [4] is no more than 0.61 pM. Further, the koff with recombinant GST-SNAP25FL [5] is no more than 1e-07 s⁻¹.
